Experimental data published in patent US20140087995A1 (published 2014).
Numbered stars: 1 amine (or outer) side, 2 acyl side, 3 side chain; on linkers, the order of the positions; unused ones are H or OH. Bridge positions count the residues as written; N and C are the ends. Side chains are listed from the residue outwards. Ends that are not written are not given here. * marks the point of attachment. C20 diacid = O=C(O)CCCCCCCCCCCCCCCCCCC(=O)*; γGlu = O=C(O)[C@H](CCC(=O)[*:2])N[*:1]; AEEA = NCCOCCOCC(=O)O

T1: human calcitonin receptor (human, UniProt P30988 25-474)
T1 sequence (looked up): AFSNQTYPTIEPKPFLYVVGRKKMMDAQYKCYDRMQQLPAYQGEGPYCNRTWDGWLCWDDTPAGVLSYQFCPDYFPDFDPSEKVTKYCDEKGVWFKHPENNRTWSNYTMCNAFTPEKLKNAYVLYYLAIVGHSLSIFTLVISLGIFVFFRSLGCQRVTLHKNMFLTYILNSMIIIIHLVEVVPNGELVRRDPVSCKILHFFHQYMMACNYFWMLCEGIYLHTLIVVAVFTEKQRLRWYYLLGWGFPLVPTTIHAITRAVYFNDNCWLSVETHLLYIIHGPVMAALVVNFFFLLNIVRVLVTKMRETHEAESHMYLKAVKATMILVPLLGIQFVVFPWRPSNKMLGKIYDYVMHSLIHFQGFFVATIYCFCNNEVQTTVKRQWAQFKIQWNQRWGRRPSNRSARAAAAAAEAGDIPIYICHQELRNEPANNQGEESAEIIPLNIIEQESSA

T2: human amylin receptor (amylin 3(a) receptor: human calcitonin receptor co-expressed with RAMP-3) (human, UniProt P30988 25-474; O60896 24-148, limits assumed)
T2 sequence (looked up) 1: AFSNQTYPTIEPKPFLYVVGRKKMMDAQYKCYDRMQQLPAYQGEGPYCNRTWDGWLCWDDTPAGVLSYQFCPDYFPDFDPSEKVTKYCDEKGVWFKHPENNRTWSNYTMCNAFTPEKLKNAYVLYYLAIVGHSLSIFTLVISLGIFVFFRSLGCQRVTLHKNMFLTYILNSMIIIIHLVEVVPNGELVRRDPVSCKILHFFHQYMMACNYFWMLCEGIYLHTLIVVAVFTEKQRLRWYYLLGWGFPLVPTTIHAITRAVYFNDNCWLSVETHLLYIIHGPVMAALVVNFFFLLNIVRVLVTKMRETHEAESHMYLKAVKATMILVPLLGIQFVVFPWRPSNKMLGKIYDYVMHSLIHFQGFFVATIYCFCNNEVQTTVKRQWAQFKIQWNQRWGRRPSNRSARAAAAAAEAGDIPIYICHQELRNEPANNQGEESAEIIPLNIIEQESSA
T2 sequence (looked up) 2: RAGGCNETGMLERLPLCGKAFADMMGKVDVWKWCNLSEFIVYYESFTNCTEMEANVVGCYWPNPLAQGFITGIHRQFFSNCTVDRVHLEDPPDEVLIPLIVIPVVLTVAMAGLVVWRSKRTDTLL


How the values were obtained:
[1] = target: T1, human calcitonin receptor; assay: cell-based or functional assay
[2] = target: T2, human amylin receptor (amylin 3(a) …); assay: cell-based or functional assay

| Binder | Ratio hCT/hAmylin funct. (hCTR EC50 against hAmylin-R EC50) [1] | hCTR funct. EC50 [1] [nM] | hAmylin-R funct. EC50 [2] [nM] |
| --- | --- | --- | --- |
| K([AEEA-γGlu-C20 diacid])CNTATCATQRLANFLRHSSPNFGAIPSSTNVGSNTY-NH2 (disulfide 2-7; N-terminus assumed; SMILES CC[C@H](C)[C@H](NC(=O)[C@H](C)NC(=O)CNC(=O)[C@H](Cc1ccccc1)NC(=O)[C@H](CC(N)=O)NC(=O)[C@@H]1CCCN1C(=O)[C@H](CO)NC(=O)[C@H](CO)NC(=O)[C@H](Cc1c[nH]cn1)NC(=O)[C@H](CCCNC(=N)N)NC(=O)[C@H](CC(C)C)NC(=O)[C@H](Cc1ccccc1)NC(=O)[C@H](CC(N)=O)NC(=O)[C@H](C)NC(=O)[C@H](CC(C)C)NC(=O)[C@H](CCCNC(=N)N)NC(=O)[C@H](CCC(N)=O)NC(=O)[C@@H](NC(=O)[C@H](C)NC(=O)[C@@H]1CSSC[C@H](NC(=O)[C@@H](N)CCCCNC(=O)COCCOCCNC(=O)CC[C@H](NC(=O)CCCCCCCCCCCCCCCCCCC(=O)O)C(=O)O)C(=O)N[C@@H](CC(N)=O)C(=O)N[C@@H]([C@@H](C)O)C(=O)N[C@@H](C)C(=O)N[C@@H]([C@@H](C)O)C(=O)N1)[C@@H](C)O)C(=O)N1CCC[C@H]1C(=O)N[C@@H](CO)C(=O)N[C@@H](CO)C(=O)N[C@H](C(=O)N[C@@H](CC(N)=O)C(=O)N[C@H](C(=O)NCC(=O)N[C@@H](CO)C(=O)N[C@@H](CC(N)=O)C(=O)N[C@H](C(=O)N[C@@H](Cc1ccc(O)cc1)C(N)=O)[C@@H](C)O)C(C)C)[C@@H](C)O, also called compound 41) | 16.7 | 4.35 | 0.26 |
| KCNTATCATQRLANFLRHSSPNFGAIPSSTNVGRNTY (alpha amino group of the N-terminal residue (Lys1) acylated with C20 diacid-gGlu; disulfide bridge Cys2-Cys7; C-terminal amide, also called compound 39) [N^α1-[(4S)-4-carboxy-4-(19-carboxynonadecanoylamino)butanoyl]-[Arg17,Pro21,Pro27,Arg34]-h-amylin] | 11.6 | 2.52 | 0.217 |
| KCNTATCATQRLANFLRHSSPNFGAIPSSTNVGHNTY (alpha amino group of the N-terminal residue (Lys1) acylated with C20 diacid-gGlu; disulfide bridge Cys2-Cys7; C-terminal amide, also called compound 40) [N^α1-[(4S)-4-carboxy-4-(19-carboxynonadecanoylamino)butanoyl]-[Arg17,Pro21,Pro27,His34]-h-amylin] | 16.4 | – | 0.164 |
